Like-named read-outs stand apart in the source and are kept apart here. Each block holds one substance with its values, some of them ahead of it.
Columns and labels:
[1] = biological target: tissue factor (TF) antigen (UniProt P13726); experiment: SPR; against wild-type D3H44 Fab; * estimated from the same Fab with another L chain tag
[2] = biological target: tissue factor (TF) antigen (UniProt P13726); experiment: SPR (ProteOn), Fab captured on anti-penta His, TF as analyte, 1:1 fit; * estimated from the same Fab with another L chain tag
[3] = biological target: D3H44 light chain Q38E_Q124E_Q160E_T180E; experiment: SMCA: H1, H2, L1, L2 co-expressed in CHO-3E7, protein A, LC-MS; competitor light chain m8
[4] = biological target: D3H44 light chain Q124E_Q160E_T180E; experiment: SMCA: H1, H2, L1, L2 co-expressed in CHO-3E7, protein A, LC-MS; competitor light chain m44
[5] = biological target: D3H44 light chain Q124E_Q160E_T180E; experiment: SMCA: four chains co-expressed in CHO-3E7, protein A, LC-MS; competing light chain m18
[6] = biological target: D3H44 light chain Q124R_Q160K_T178R; experiment: SMCA: LC-MS of protein A purified product after co-expression of H1, H2, L1, L2 in CHO-3E7; competing light chain m48
[7] = biological target: D3H44 light chain Q124R; experiment: SMCA: LC-MS of protein A purified product after co-expression of H1, H2, L1, L2 in CHO-3E7; competing light chain m50
[8] = biological target: Trastuzumab light chain P44F_S131K; experiment: SMCA: four chains co-expressed in CHO-3E7, protein A, LC-MS; competing light chain m16
[9] = biological target: D3H44 light chain Q124E_Q160E_T180E; experiment: SMCA: four chains co-expressed in CHO-3E7, protein A, LC-MS; competing light chain m24
[10] = biological target: Trastuzumab light chain P44F_Q124R_Q160K_T178R; experiment: SMCA: four chains co-expressed in CHO-3E7, protein A, LC-MS; competing light chain m16
[11] = biological target: D3H44 light chain P44F_Q124R_Q160K_T178R; experiment: SMCA: LC-MS of protein A purified product after co-expression of H1, H2, L1, L2 in CHO-3E7; competing light chain m46
[12] = biological target: D3H44 light chain Q38E_Q124E_Q160E_T180E; experiment: SMCA: four chains co-expressed in CHO-3E7, protein A, LC-MS; competing light chain m28
[13] = biological target: D3H44 light chain V133G_N137K_S174R_S176R; experiment: SMCA co-expression, LC-MS; competing light chain m20
[14] = biological target: D3H44 light chain V133G_N137K_S174R_S176R; experiment: SMCA co-expression, LC-MS; competing light chain m24
[15] = biological target: D3H44 light chain V133G_N137K_S174R_S176R; experiment: SMCA: 2 heavy + 2 light chains co-expressed, protein A, LC-MS; competing light chain m48
[16] = biological target: D3H44 Fab heavy chain L124E_L143E_K145M; experiment: LCCA, L1:L2 DNA 1:3 normalised to 1:1, SPR of light chain tags; competitor m56
[17] = biological target: D3H44 Fab heavy chain L124R_D146N_Q179K; experiment: as above
[18] = biological target: D3H44 Fab heavy chain L124E_L143D_K145T (H1 of LCCA sets 9214, 9217, 9216, 9219, 9220, 9225, 9228, 9229)
[19] = biological target: D3H44 Fab heavy chain L124E_L143E_K145M (H1 of LCCA sets 9269, 9266, 9267, 9260, 9262, 9263)
[20] = biological target: D3H44 Fab heavy chain L124E_L143D_K145T (H1 of LCCA sets 9214, 9217, 9216, 9219, 9220, 9225, 9228, 9229); remark: listed apart in the source
[21] = biological target: D3H44 Fab heavy chain L124E_L143E_K145M (H1 of LCCA sets 9269, 9266, 9267, 9260, 9262, 9263); remark: listed apart in the source
[22] = biological target: D3H44 Fab heavy chain L124E_L143D_K145T (H1 of LCCA sets 9214, 9217, 9216, 9219, 9220, 9225, 9228, 9229); experiment: LCCA: H1 co-expressed with L1 and L2 (DNA 333:250:749 ng), His-tag capture on SPR chip, light chain tags detected with anti-HA/anti-FLAG; competitor L2 V133G_S176D_T178D_T180E
[23] = biological target: D3H44 Fab heavy chain L124E_L143E_K145M (H1 of LCCA sets 9269, 9266, 9267, 9260, 9262, 9263); experiment: as above
[24] = biological target: D3H44 Fab heavy chain L124R_D146N_Q179K (H1 of LCCA sets 9358, 9359, 9357, 9351, 9352, 9353, 9354, 9350); experiment: LCCA: H1 co-expressed with L1 and L2 (DNA 333:250:749 ng), His-tag capture on SPR chip, light chain tags detected with anti-HA/anti-FLAG; competitor L1 Q124E_V133G_S176D_T178E_T180E
[25] = biological target: D3H44 Fab heavy chain L124E_L143D_K145T (H1 of LCCA sets 9214, 9217, 9216, 9219, 9220, 9225, 9228, 9229); experiment: LCCA: H1 co-expressed with L1 and L2 (DNA 333:250:749 ng), His-tag capture on SPR chip, light chain tags detected with anti-HA/anti-FLAG; competitor L2 Q124E_V133G_S176D_T178D_T180E
[26] = biological target: D3H44 Fab heavy chain L124E_L143D_K145T (H1 of LCCA sets 9214, 9217, 9216, 9219, 9220, 9225, 9228, 9229); experiment: LCCA: H1 co-expressed with L1 and L2 (DNA 333:250:749 ng), His-tag capture on SPR chip, light chain tags detected with anti-HA/anti-FLAG; competitor L2 Q124E_V133G_S176D_T178E_T180E
[27] = biological target: D3H44 light chain Q124E_Q160E_T178E; experiment: SMCA: four chains co-expressed in CHO-3E7, protein A, LC-MS; competing light chain m35
[28] = biological target: Trastuzumab light chain Q38R_S131K; experiment: SMCA: four chains co-expressed in CHO-3E7, protein A, LC-MS; competing light chain m26
[29] = biological target: D3H44 light chain Q124E_Q160E_T180E; experiment: SMCA: four chains co-expressed in CHO-3E7, protein A, LC-MS; competing light chain m21
[30] = biological target: D3H44 light chain Q124R_Q160K_T178R; experiment: SMCA: H1, H2, L1, L2 co-expressed in CHO-3E7, protein A, LC-MS; competitor light chain m28
[31] = biological target: D3H44 light chain Q124E_N137K_Q160E_S174R_T180E; experiment: SMCA: 2 heavy + 2 light chains co-expressed, protein A, LC-MS; competing light chain m38
[32] = biological target: D3H44 light chain P44F_S131K; experiment: SMCA: LC-MS of protein A purified product after co-expression of H1, H2, L1, L2 in CHO-3E7; competing light chain m46
[33] = biological target: D3H44 light chain Q124E_Q160E_T180E; experiment: SMCA: 2 heavy + 2 light chains co-expressed, protein A, LC-MS; competing light chain m4
[34] = biological target: D3H44 light chain Q38R_S131K; experiment: SMCA: H1, H2, L1, L2 co-expressed in CHO-3E7, protein A, LC-MS; competitor light chain m4
[35] = biological target: D3H44 light chain Q124E_V133W_S176T_T178L_T180E; experiment: SMCA co-expression, LC-MS; competing light chain m6
[36] = biological target: D3H44 light chain Q124E_V133W_S176T_T178L_T180E; experiment: SMCA: 2 heavy + 2 light chains co-expressed, protein A, LC-MS; competing light chain m24

Substance: D3H44 Fab heterodimer, H1 L124E_L143E_K145T / L1 Q124K_V133G_S176R_T178K (H1L1 of LCCA sets 9308 and 9300)
Change in KD with respect to wild type (-(log(KD design) - log(KD wt))) [1]: -0.12 | Kd [2]: 0.21 nM

Substance: D3H44 full-length heavy chain Q179K (from UniProt P0DOX5 2-448)
% H1L1 Pairing (over all H1 species) [5]: 100%

Substance: D3H44 heavy chain L143E_K145T (from UniProt P0DOX5 2-448)
% H1L1 Pairing (over all H1 species) [6]: 83.2% | % H1L1 Pairing (over all H1 species) [7]: 91.5%

Substance: Trastuzumab full-length heavy chain L45P_K145T_H172R_Q179E (from UniProt P0DOX5 2-448)
% H2L2 Pairing (over all H2 species) [8]: 96.3%

Substance: D3H44 heavy chain L45P_L143E_K145T (from UniProt P0DOX5 2-448)
% H1L1 Pairing (over all H1 species) [11]: 88.1%

Substance: D3H44 full-length heavy chain Q39R_S186R (from UniProt P0DOX5 2-448)
% H1L1 Pairing (over all H1 species) [12]: 100%

Substance: D3H44 heavy chain L124E_H172T (from UniProt P0DOX5 2-448)
% H1L1 Pairing (over all H1 species) [13]: 100% | Change in % H1L1 Pairing (over all H1 species) with respect to wild type [13]: 38.1% | % H1L1 Pairing (over all H1 species) [14]: 50.5% | Change in % H1L1 Pairing (over all H1 species) with respect to wild type [14]: 9.9% | % H1L1 Pairing (over all H1 species) [15]: 100%

Substance: D3H44 light chain Q124K_V133G_S176R_T178K
H1L1:H1L2 normalized median ratio [16]: 84% | H1L1:H1L2 normalized median scalar value ln(r1/f1) [16]: 1.67 | H2L2:H2L1 normalized median ratio [17]: 16% | median LCCA performance normalized to a L1:L2 DNA ratio of 1:1 (ratio H1-L1:H1-L2), H1-L1 share (ratio part of 100) [18]: 84 | median LCCA performance normalized to a L1:L2 DNA ratio of 1:1 (ratio H1-L1:H1-L2), H1-L1 share (ratio part of 100) [19]: 85 | median LCCA performance normalized to a L1:L2 DNA ratio of 1:1 (ratio H1-L1:H1-L2), H1-L1 share (ratio part of 100) [20]: 81 | median LCCA performance normalized to a L1:L2 DNA ratio of 1:1 (ratio H1-L1:H1-L2), H1-L1 share (ratio part of 100) [21]: 88 | median LCCA performance normalized to a L1:L2 DNA ratio of 1:1 (ratio H1-L1:H1-L2), H1-L1 share (ratio part of 100) [22]: 82 | median LCCA performance normalized to a L1:L2 DNA ratio of 1:1 (ratio H1-L1:H1-L2), H1-L1 share (ratio part of 100) [23]: 63 | median LCCA performance normalized to a L1:L2 DNA ratio of 1:1 (ratio H1-L1:H1-L2), H1-L2 share (ratio part of 100) [24]: 16 | median LCCA performance normalized to a L1:L2 DNA ratio of 1:1 (ratio H1-L1:H1-L2), H1-L1 share (ratio part of 100) [25]: 85 | median LCCA performance normalized to a L1:L2 DNA ratio of 1:1 (ratio H1-L1:H1-L2), H1-L1 share (ratio part of 100) [26]: 79

Substance: Trastuzumab full-length heavy chain Q39E_K145T_Q179E (from UniProt P0DOX5 2-448)
% H2L2 Pairing (over all H2 species) [28]: 94.3%

Substance: D3H44 full-length heavy chain D146G_Q179K (from UniProt P0DOX5 2-448)
% H1L1 Pairing (over all H1 species) [29]: 100%

Substance: D3H44 heavy chain H172T_Q179K (from UniProt P0DOX5 2-448)
% H1L1 Pairing (over all H1 species) [31]: 100%

Substance: D3H44 heavy chain H172R_S186R (from UniProt P0DOX5 2-448)
% H1L1 Pairing (over all H1 species) [33]: 100%

Substance: D3H44 heavy chain L124A_L143F_Q179K (from UniProt P0DOX5 2-448)
% H1L1 Pairing (over all H1 species) [35]: 100% | Change in % H1L1 Pairing (over all H1 species) with respect to wild type [35]: 38.1% | % H1L1 Pairing (over all H1 species) [36]: 100%

Now from value to substance:

% H1L1 Pairing (over all H1 species) [3]: 100%
Substance: D3H44 heavy chain Q39R_S186R (from UniProt P0DOX5 2-448)

% H1L1 Pairing (over all H1 species) [4]: 100%
Substance: D3H44 heavy chain D146G_Q179K (from UniProt P0DOX5 2-448)

% H1L1 Pairing (over all H1 species) [9]: 100%
Substance: D3H44 full-length heavy chain H172R_S186R (from UniProt P0DOX5 2-448)

% H2L2 Pairing (over all H2 species) [10]: 94.8%
Substance: Trastuzumab full-length heavy chain L45P_L143E_K145T (from UniProt P0DOX5 2-448)

% H1L1 Pairing (over all H1 species) [27]: 98.2%
Substance: D3H44 full-length heavy chain S186K (from UniProt P0DOX5 2-448)

% H1L1 Pairing (over all H1 species) [30]: 100%
Substance: D3H44 heavy chain L143E_K145T_H172R (from UniProt P0DOX5 2-448)

% H1L1 Pairing (over all H1 species) [32]: 75.5%
Substance: D3H44 heavy chain L45P_K145T_H172R_Q179E (from UniProt P0DOX5 2-448)

% H1L1 Pairing (over all H1 species) [34]: 100%
Substance: D3H44 heavy chain Q39E_K145T_Q179E (from UniProt P0DOX5 2-448)
